Experimental data published in paper PMC5737116, “Biochemical Properties of Human D-Amino Acid Oxidase” (Frontiers in Molecular Biosciences, 2017).

Columns and labels:
Settings in all cases: other: apparent, 21% oxygen saturation, pH 8.5, 25°C
N[C@@H]1CON=C1O = test system: T1, N[C@@H]1CON=C1O; assay: Oxygen-consumption activity assay, apparent kinetic parameters (substrate specificity); type: biochemical, human
T1 construct: made in house; host or cells: E. coli

N[C@H](CS)C(=O)O = test system: T2, N[C@H](CS)C(=O)O; assay: as above; type: biochemical, human
T2 construct: made in house; host or cells: E. coli

[1] = test system: N[C@H](Cc1ccc(O)c(O)c1)C(=O)O; assay: purified protein, by the assay type

Sequence of human DAAO (Homo sapiens) (chain, as listed by the source): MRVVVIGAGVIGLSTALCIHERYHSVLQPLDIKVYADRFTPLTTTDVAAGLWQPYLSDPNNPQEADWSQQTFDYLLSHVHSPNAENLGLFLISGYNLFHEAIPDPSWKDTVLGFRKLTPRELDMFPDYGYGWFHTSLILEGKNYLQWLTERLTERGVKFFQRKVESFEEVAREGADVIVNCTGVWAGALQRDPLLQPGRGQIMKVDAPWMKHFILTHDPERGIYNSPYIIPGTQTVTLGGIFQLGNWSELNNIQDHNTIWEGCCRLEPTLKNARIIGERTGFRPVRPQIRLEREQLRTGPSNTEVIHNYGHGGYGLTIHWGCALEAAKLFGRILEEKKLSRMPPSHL

Substance: human DAAO (Homo sapiens)
- Km (N[C@@H]1CON=C1O): 83.5 ± 15.0 mM
- kcat (N[C@@H]1CON=C1O): 0.77 ± 0.05 s⁻¹
- kcat/Km (N[C@@H]1CON=C1O): 9 M⁻¹ s⁻¹
- Km (N[C@H](CS)C(=O)O): 0.6 ± 0.1 mM
- kcat (N[C@H](CS)C(=O)O): 8.6 ± 0.2 s⁻¹
- kcat/Km (N[C@H](CS)C(=O)O): 14600 M⁻¹ s⁻¹
- Km [1]: 6 mM
- kcat [1]: 40.5 ± 5.1 [21.7]^d s^−1
- kcat/Km [1]: 6.75 [14.4]^d mM^−1 x s^−1
